This is an account of results in PMC9482650, “Quantitative fragmentomics allow affinity mapping of interactomes” (Nature Communications, 2022).

Holding throughout (experiment): holdup assay
Common to all, as to design: key: below the threshold = too weak to quantify, mostly under pKd 3.1 to 4
What all share (conditions): plain residues with an end cap or a label only (N-terminal biotin on a linker: ttds)

For assay [1], the target named is AHNAK2, Q8IVF2.
In assay [2] the target is T1, ARHGEF11, O15085.
T1 sequence (O15085 42-136, limits assumed, looked up): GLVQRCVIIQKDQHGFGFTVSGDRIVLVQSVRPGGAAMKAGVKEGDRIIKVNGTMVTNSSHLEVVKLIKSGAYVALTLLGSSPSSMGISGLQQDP

The target of assay [3] is T2, CNKSR1, Q969H4.
T2 sequence (Q969H4 191-295, limits assumed, looked up): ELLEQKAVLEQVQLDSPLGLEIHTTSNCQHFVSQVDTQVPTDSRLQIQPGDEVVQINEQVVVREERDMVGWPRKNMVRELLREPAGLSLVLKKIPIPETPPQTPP

Assay [4] has as its target DLG2_1, Q15700.
The target in assay [5] is DLG5_2, Q8TDM6.
Sequence of DLG5_2, Q8TDM6 (Q8TDM6 714-800): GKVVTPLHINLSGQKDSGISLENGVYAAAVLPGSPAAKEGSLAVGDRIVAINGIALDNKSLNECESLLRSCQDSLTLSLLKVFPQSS
The target of assay [6] is GRIP2_2, Q9C0E4.
Sequence of GRIP2_2, Q9C0E4 (Q9C0E4 137-245): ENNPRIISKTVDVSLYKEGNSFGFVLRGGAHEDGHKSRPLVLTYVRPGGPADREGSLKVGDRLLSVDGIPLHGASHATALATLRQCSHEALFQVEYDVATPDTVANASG
Assay [7] concerns the target LIMK1, P53667.
Assay [8] deals with T3, LNX2_4, Q8N448.
T3 sequence (Q8N448 595-690, limits assumed, looked up): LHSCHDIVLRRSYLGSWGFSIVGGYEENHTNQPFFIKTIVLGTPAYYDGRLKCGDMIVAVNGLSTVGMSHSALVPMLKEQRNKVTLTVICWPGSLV

Assay [9] has as its target T4, NHERF1_1, O14745.
T4 sequence (O14745 9-104, limits assumed, looked up): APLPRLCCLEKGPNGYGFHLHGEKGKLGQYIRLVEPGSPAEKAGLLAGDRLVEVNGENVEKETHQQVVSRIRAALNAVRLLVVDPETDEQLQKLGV

Assay [10] addresses T5, NHERF1_2, O14745.
T5 sequence (O14745 149-244, limits assumed, looked up): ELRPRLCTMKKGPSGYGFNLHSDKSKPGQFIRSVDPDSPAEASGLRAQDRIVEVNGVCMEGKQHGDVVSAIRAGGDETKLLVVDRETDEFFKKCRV

For assay [11], the target named is NHERF2_1, Q15599.
Sequence of NHERF2_1, Q15599 (Q15599 9-91): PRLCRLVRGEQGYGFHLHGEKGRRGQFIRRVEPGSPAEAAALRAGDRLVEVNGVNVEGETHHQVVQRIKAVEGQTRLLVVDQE
In assay [12] the target is T6, PDZD11, Q5EBL8.
T6 sequence (Q5EBL8 42-139, limits assumed, looked up): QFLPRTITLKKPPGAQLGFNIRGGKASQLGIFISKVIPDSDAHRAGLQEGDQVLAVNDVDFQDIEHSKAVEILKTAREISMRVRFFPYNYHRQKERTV

Assay [13] has as its target T7, PDZD2_1, O15018.
T7 sequence (O15018 80-192, limits assumed, looked up): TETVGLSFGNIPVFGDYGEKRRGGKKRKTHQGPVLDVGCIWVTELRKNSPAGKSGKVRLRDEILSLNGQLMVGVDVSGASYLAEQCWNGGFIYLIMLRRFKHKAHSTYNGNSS

The target of assay [14] is T8, PDZD8, Q8NEN9.
T8 sequence (Q8NEN9 361-459, limits assumed, looked up): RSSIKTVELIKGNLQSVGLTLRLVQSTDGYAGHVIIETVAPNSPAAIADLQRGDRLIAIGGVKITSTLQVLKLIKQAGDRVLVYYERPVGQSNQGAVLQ

Assay [15] addresses PDZRN4_2, Q6ZMN7.
The target of assay [16] is T9, PREX2_2, Q70Z35.
T9 sequence (Q70Z35 672-764, limits assumed, looked up): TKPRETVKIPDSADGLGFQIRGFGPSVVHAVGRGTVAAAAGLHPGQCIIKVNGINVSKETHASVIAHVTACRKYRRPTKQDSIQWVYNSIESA

Assay [17] concerns the target PTPN13_2, Q12923.
Assay [18] has as its target T10, PTPN13_4, Q12923.
T10 sequence (Q12923 1783-1878, limits assumed, looked up): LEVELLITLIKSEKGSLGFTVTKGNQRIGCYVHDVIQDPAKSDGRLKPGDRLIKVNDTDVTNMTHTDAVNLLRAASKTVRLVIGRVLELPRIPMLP

The target of assay [19] is T11, SHANK2, Q9UPX8.
T11 sequence (Q9UPX8 621-730, limits assumed, looked up): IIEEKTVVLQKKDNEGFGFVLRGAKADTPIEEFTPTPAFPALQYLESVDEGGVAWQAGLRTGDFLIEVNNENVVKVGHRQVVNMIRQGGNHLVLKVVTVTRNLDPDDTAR

Assay [20] concerns the target T12, SHROOM2, Q13796.
T12 sequence (Q13796 21-118, limits assumed, looked up): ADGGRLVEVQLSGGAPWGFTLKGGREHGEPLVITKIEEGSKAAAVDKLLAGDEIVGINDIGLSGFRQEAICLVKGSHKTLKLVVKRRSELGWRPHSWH

The target in assay [21] is T13, TJP3_1, O95049.
T13 sequence (O95049 6-103, limits assumed, looked up): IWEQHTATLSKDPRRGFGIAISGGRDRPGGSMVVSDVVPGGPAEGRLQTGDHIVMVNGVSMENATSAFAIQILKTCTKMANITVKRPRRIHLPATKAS

Assay [22] deals with T14, USH1C_1, Q9Y6N9.
T14 sequence (Q9Y6N9 82-179, limits assumed, looked up): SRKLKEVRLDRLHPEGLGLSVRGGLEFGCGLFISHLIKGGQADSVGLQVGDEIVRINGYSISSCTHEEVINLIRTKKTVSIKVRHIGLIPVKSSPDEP

Sequence of PTPN13_2, Q12923 (Q12923 1363-1462): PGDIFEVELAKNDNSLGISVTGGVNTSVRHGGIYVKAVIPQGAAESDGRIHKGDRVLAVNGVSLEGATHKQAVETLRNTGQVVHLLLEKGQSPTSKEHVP
Sequence of LIMK1, P53667 (P53667 155-268): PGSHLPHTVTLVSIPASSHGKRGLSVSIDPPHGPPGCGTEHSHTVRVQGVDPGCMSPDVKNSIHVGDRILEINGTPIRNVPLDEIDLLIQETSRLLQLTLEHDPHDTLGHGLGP
Sequence of PDZRN4_2, Q6ZMN7 (Q6ZMN7 389-498): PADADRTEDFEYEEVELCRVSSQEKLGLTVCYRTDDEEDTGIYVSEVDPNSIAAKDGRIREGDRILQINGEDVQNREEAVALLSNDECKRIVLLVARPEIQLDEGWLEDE
Sequence of AHNAK2, Q8IVF2 (Q8IVF2 108-193): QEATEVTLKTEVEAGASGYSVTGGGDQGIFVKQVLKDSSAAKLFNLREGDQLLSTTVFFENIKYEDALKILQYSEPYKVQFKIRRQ

STLTIFETAL [ABCC4, O15439]: the pKd entry in assay [1] was “below the threshold”; in assay [2], 4.93; in assay [3] it was “below the threshold”; in assay [4] it was 4.21; in assay [5], “below the threshold”; in [6] it was “below the threshold”. Also, the pKd in [7] is 4.24; in assay [8], “below the threshold”; in assay [9] it was 5.36; in [10], “below the threshold”; in assay [11], 4.83; in assay [12] it was 4.46. Besides, the negative-log Kd (pKd) was 4.19 in assay [13]; “below the threshold” in [14]; “below the threshold” in assay [15]; “below the threshold” in [16]; “below the threshold” in assay [17]; “below the threshold” in assay [18]. The negative logarithm of the Kd (pKd) is 4.85 in assay [19], 4.44 in assay [20], “below the threshold” in assay [21] and 4.33 in [22].

In the case of QSARYRDTEL [TJP2, Q9UDY2], the pKd result in [1] was “below the threshold”; in assay [2], 3.87; in assay [3], “below the threshold”; in [4] it was “below the threshold”; in assay [5], “below the threshold”; in assay [6], “below the threshold”. The negative-log Kd (pKd) entry in [7], in assay [8], in assay [9], in assay [10], in assay [11] and in [12] was “below the threshold” throughout. Further, the pKd result in assay [13], in assay [14], in assay [15], in assay [16], in assay [17] and in [18] was “below the threshold” in each case. The negative logarithm of the Kd (pKd) result in [19], in assay [20], in [21] and in [22] was “below the threshold” each time.

For SSRTRRETQL [HPV16-E6, P03126], the pKd result in assay [1] is “below the threshold”; in assay [2] it was 4.15; in [3], “below the threshold”; in assay [4], 4.92; in assay [5] it was 4.12; in assay [6] it was “below the threshold”. In addition, the negative logarithm of the Kd (pKd) entry in assay [7] is “below the threshold”; in [8], “below the threshold”; in assay [9] it was 4.15; in assay [10], 3.89; in assay [11] it was “below the threshold”; in assay [12], “below the threshold”. Moreover, the negative-log Kd (pKd) entry in [13], in [14], in assay [15], in [16], in assay [17] and in assay [18] was “below the threshold” in each case. The negative-log Kd (pKd) result in assay [19], in assay [20], in [21] and in assay [22] was “below the threshold” throughout.

In the case of PKTPPTDTSV [KIR3DL3, Q8N743], the pKd result in assay [1], in assay [2], in assay [3], in assay [4], in [5] and in [6] was “below the threshold” in each case. The pKd entry in [7] is “below the threshold”; in [8] it was “below the threshold”; in assay [9], “below the threshold”; in [10], “below the threshold”; in [11] it was “below the threshold”; in assay [12], 4.3. In addition, the negative-log Kd (pKd) in assay [13] was 4.3; in [14], 4.36; in assay [15], “below the threshold”; in assay [16], “below the threshold”; in [17], “below the threshold”; in assay [18] it was “below the threshold”. Also, the negative-log Kd (pKd) entry in [19], in assay [20], in assay [21] and in assay [22] was “below the threshold” throughout.

For orientation: pKd means −log10 of the Kd, conventionally taken in molar units.
